Reference: patent publication US20180346571A1

What was measured:
[1] = target: mouse PD-L1-CD4TM-GFP expressed on HEK-293 cells (mouse) (UniProt Q9EP73); assay: FACS on HEK-293 cells transfected with mPD-L1-GFP, secondary antibody alone (negative control)
[2] = target: human PD-L1 ECD-CD4TM-GFP expressed on HEK-293 / HEK-293T cells (human) (UniProt Q9NZQ7); assay: FACS on HEK-293 cells transfected with hPD-L1-GFP, secondary antibody alone (negative control)
[3] = target: cynomolgus PD-L1-CD4TM-GFP expressed on HEK-293 cells (cynomolgus) (UniProt G7PSE7); assay: FACS on HEK-293 cells transfected with cyno PD-L1-GFP, secondary antibody alone (negative control)
[4] = target: human PD-L1 ECD-CD4TM-GFP expressed on HEK-293 / HEK-293T cells (human) (UniProt Q9NZQ7); assay: FACS on HEK-293T cells expressing hPD-L1-GFP, control panel headed anti-mFc-PE in the row 'No antibody' (taken as the control without PD-1-Fc of paragraph 289)

Chain of UniProt Q9NZQ7 (Q9NZQ7 19-238): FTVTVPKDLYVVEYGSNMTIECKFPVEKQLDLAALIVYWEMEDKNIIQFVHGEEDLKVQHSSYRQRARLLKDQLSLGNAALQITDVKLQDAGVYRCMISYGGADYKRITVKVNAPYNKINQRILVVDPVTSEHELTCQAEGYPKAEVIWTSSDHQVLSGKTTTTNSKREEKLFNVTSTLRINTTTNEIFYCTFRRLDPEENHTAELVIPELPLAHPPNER
Chain of UniProt G7PSE7 (G7PSE7 entry or part of it limits assumed): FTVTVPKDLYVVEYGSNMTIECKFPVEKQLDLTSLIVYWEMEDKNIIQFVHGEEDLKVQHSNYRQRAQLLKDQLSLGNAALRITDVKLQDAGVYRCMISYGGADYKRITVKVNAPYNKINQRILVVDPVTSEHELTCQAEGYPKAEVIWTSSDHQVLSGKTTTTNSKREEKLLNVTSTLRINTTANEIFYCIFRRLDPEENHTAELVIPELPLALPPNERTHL
Chain of UniProt Q9EP73 (Q9EP73 19-239): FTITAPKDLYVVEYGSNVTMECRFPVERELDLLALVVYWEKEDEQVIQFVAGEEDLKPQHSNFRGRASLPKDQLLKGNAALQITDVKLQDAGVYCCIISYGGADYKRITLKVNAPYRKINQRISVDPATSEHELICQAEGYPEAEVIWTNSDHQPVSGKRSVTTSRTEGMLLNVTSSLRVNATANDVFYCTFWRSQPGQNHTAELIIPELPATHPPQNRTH

Only anti-hFc Ab (antibody)
MFI [1]: 3 | MFI [2]: 3 | MFI [3]: 3

anti-mFc-PE (antibody)
MFI [4]: 10

Only anti-mFc Ab (antibody)
MFI [2]: 6
